Test results from patent US20020127721A1.

Tests used:
[1] = molecular target: human coxsackievirus and adenovirus receptor (CAR) (human) (UniProt P78310); experiment: cell-based or functional assay
[2] = molecular target: human coxsackievirus and adenovirus receptor (CAR) (human) (UniProt P78310); experiment: flow cytometry, RmcB staining of 3T3 cells after Ad5CMVhCAR:CaPi gene transfer
[3] = molecular target: human coxsackievirus and adenovirus receptor (CAR) (human) (UniProt P78310); experiment: flow cytometry, RmcB staining of CHO cells after Ad5CMVhCAR:CaPi gene transfer

Chain of UniProt P78310 (P78310 20-365): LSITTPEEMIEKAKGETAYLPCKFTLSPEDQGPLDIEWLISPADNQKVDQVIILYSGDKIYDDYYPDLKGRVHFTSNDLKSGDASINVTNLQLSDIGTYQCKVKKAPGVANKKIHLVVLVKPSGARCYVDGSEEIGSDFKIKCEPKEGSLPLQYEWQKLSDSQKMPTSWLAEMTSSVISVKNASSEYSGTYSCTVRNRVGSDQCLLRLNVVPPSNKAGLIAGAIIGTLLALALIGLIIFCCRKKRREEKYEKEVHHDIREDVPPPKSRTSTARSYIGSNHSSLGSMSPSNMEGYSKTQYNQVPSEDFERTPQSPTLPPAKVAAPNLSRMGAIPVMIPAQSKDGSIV

| Substance | infection of 3T3 cells after CAR gene transfer (% eGFP-positive by FACS; 3% without CAR) [1] [%] | infection of CHO cells after CAR gene transfer (% eGFP-positive by FACS; 0% without CAR) [1] [%] | percent of cells positive for CAR [2] [%] | percent of cells positive for CAR [3] [%] |
| --- | --- | --- | --- | --- |
| Ad5 fiber (endogenous, non-recombinant fiber of the control virus Ad5RSVeGFP) (from UniProt P11818 1-581) | 21 | 57 |  |  |
| monoclonal antibodies (mAbs) against CAR (RmcB) (antibody) |  |  | 92 | 96 |
